US20230059341A1 (TESARO, published 2023)
Like-named read-outs stand apart in the source and are kept apart here.

B1: Dostarlimab, Unstressed Control (antibody, human IgG4 S228P, kappa)
heavy: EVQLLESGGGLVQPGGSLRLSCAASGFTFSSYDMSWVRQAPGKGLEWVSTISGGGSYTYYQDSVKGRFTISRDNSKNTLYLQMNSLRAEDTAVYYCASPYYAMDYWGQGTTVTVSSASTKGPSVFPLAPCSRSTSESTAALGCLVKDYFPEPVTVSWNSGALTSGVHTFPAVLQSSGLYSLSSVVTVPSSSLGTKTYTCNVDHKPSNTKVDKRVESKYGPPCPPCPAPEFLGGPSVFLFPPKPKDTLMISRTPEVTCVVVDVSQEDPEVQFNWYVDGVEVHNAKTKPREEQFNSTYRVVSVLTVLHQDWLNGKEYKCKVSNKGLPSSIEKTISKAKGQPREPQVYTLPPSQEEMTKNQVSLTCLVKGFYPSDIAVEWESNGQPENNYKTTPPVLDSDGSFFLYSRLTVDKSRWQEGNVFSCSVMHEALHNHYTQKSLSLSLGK
light: DIQLTQSPSFLSAYVGDRVTITCKASQDVGTAVAWYQQKPGKAPKLLIYWASTLHTGVPSRFSGSGSGTEFTLTISSLQPEDFATYYCQHYSSYPWTFGQGTKLEIKRTVAAPSVFIFPPSDEQLKSGTASVVCLLNNFYPREAKVQWKVDNALQSGNSQESVTEQDSKDSTYSLSSTLTLSKADYEKHKVYACEVTHQGLSSPVTKSFNRGEC
modifications: percent of population: Met 248 oxidation 3.0; Asp 261/266/276 isomerization 1.0; Asn 311 deamidation 6.0; Asn 380 deamidation 8.4; Asn 430 deamidation 1.2; Lys 443 clipped 97.8
notes: Control of the forced degradation study (DS batch #1); HMW 0.9%
B2: Dostarlimab, H2O2 treated, T0 (exposed to H2O2, no incubation) (antibody, human IgG4 S228P, kappa)
heavy: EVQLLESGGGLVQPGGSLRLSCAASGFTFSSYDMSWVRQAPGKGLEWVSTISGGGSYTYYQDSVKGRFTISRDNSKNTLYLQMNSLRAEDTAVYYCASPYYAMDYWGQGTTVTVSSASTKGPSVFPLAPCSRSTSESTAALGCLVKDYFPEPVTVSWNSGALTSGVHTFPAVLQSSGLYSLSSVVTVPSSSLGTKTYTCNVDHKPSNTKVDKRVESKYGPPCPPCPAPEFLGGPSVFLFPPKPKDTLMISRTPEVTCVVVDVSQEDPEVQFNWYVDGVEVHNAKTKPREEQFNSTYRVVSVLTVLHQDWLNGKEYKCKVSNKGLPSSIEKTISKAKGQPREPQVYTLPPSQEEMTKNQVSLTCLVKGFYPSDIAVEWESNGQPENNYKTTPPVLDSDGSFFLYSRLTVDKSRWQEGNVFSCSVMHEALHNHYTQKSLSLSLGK
light: B1 light
modifications: percent of population: Asn 137 deamidation 1.3; percent of population: Met 103 oxidation 1.2; Met 248 oxidation 47.1; Asn 311 deamidation 6.8; Met 354 oxidation 16.7; Asn 380 deamidation 10.7; Asn 385 deamidation 1.7; Met 424 oxidation 29.0; Lys 443 clipped 97.2
notes: 0.1% (v:v) H2O2, quenched at once with methionine; also called H2O2 T0; Peroxide (H2O2) Oxidation
B3: Dostarlimab, photo degraded, Vis light, 25° C., 1 week and UV light, 25° C., 1 week (antibody, human IgG4 S228P, kappa)
heavy: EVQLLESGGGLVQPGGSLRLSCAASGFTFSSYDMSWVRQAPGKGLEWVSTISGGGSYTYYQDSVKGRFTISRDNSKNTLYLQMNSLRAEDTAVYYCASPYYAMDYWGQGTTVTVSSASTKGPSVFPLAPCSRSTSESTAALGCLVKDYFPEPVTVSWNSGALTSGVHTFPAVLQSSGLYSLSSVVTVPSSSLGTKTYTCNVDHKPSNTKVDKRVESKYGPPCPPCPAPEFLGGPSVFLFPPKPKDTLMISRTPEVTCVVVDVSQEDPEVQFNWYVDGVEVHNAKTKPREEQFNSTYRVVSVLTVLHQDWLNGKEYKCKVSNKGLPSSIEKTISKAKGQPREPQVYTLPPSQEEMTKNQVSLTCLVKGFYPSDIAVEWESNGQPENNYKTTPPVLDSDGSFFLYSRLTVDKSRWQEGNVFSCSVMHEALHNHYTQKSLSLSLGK
light: B1 light
modifications: percent of population: Trp 50 oxidation 4.8; percent of population: Met 248 oxidation 33.4; Asp 261/266/276 isomerization 1.0; Asn 311 deamidation 6.4; Met 354 oxidation 10.9; Asn 380 deamidation 9.5; Asn 385 deamidation 1.3; Met 424 oxidation 27.0; Asn 430 deamidation 1.2; Lys 443 clipped 97.8
notes: Mixture; HMW 3.3%; also called Photolysis

What was measured:
[1] = molecular target: T1, Neonatal Fc Receptor (FcRn) (UniProt P55899 24-297; P61769 21-119, limits assumed); test: FcRn binding assay, BIACORE (SPR)
[2] = molecular target: T1, Neonatal Fc Receptor (FcRn); test: FcRn binding assay, BIACORE (SPR); remark: listed apart in the source
[3] = molecular target: T2, PD-1 protein constitutively expressed on engineered CHO K1 cells (UniProt Q15116 25-288, limits assumed); test: MSD potency assay: competitive binding on CHO K1 cells expressing PD-1, inhibition of PD-L1-mFc binding, ECL; percent of reference material
T2 construct: whole, on cells; also called programmed cell death protein 1
Protocol: (§1) The Meso Scale Discovery (MSD) potency assay employs engineered CHO K1 cells constitutively expressing the PD-1 protein. […] The readout is measured using a specific detection antibody mixture that releases an electrochemiluminescence (ECL) signal that can be quantified.

[4] = molecular target: T3, human PD-1 on PD-1 effector cells (Jurkat T cells, Promega #J1155) (human, UniProt Q15116 25-288); test: cell-based or functional assay
[5] = molecular target: T1, Neonatal Fc Receptor (FcRn); test: FcRn binding assay, BIACORE (SPR); remark: listed apart in the source
[6] = molecular target: T1, Neonatal Fc Receptor (FcRn); test: FcRn binding assay, BIACORE (SPR); remark: listed apart in the source
[7] = molecular target: T1, Neonatal Fc Receptor (FcRn); test: FcRn binding assay, BIACORE (SPR); remark: listed apart in the source
[8] = molecular target: T3, human PD-1 on PD-1 effector cells …; test: cell-based or functional assay; remark: listed apart in the source
[9] = molecular target: T2, PD-1 protein constitutively expressed …; test: MSD potency assay: competitive binding on CHO K1 cells expressing PD-1, inhibition of PD-L1-mFc binding, ECL; percent of reference material; remark: listed apart in the source
Protocol: as §1

[10] = molecular target: T2, PD-1 protein constitutively expressed …; test: as above; remark: listed apart in the source
Protocol: as §1

[11] = molecular target: T1, Neonatal Fc Receptor (FcRn); test: FcRn binding assay, BIACORE (SPR); remark: listed apart in the source
[12] = molecular target: T3, human PD-1 on PD-1 effector cells …; test: cell-based or functional assay; remark: listed apart in the source
[13] = molecular target: T3, human PD-1 on PD-1 effector cells …; test: cell-based or functional assay; remark: listed apart in the source
[14] = molecular target: T3, human PD-1 on PD-1 effector cells …; test: cell-based or functional assay; remark: listed apart in the source
[15] = molecular target: T2, PD-1 protein constitutively expressed …; test: MSD potency assay: competitive binding on CHO K1 cells expressing PD-1, inhibition of PD-L1-mFc binding, ECL; percent of reference material; remark: listed apart in the source
Protocol: as §1

[16] = molecular target: T1, Neonatal Fc Receptor (FcRn); test: FcRn binding assay, BIACORE (SPR); T0 (exposed to H2O2, no incubation)

T3 sequence (Q15116 25-288): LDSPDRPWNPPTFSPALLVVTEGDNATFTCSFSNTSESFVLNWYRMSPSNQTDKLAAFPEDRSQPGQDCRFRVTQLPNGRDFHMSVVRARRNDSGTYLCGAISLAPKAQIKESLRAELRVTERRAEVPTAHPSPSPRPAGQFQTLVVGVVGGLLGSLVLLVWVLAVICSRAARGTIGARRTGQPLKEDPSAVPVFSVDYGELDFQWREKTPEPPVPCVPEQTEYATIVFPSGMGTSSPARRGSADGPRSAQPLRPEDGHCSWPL
T2 sequence (Q15116 25-288 limits assumed, change not shown): as the sequence (Q15116 25-288) above
T1 sequence (P55899 24-297 limits assumed, chain 1 of 2): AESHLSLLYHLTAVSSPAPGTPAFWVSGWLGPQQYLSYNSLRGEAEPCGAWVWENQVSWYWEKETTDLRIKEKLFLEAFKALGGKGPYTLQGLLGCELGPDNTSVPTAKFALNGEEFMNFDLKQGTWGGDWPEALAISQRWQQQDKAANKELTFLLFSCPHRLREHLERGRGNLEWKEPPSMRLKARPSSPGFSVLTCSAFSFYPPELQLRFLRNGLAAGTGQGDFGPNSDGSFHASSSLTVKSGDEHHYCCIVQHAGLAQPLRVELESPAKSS
T1 sequence (P61769 21-119 limits assumed, chain 2 of 2): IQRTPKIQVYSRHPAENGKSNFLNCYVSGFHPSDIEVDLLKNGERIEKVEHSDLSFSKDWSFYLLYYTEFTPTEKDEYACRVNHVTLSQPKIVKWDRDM

Binder | Kd [1] | Kd [2] | Relative Potency, MSD Binding [3] | Relative Potency, Cell-Based Bioassay [4] | Kd [5] | Kd [6] | Kd [7] | Relative Potency, Cell-Based Bioassay [8] | Relative Potency, MSD Binding [9] | Relative Potency, MSD Binding [10] | Kd [11] | Relative Potency (Potency by cell-based bioassay) [12] | Relative Potency, Cell-Based Bioassay [13] | Relative Potency, Cell-Based Bioassay [14] | Relative Potency, MSD Binding [15] | Kd [16]
B1 | 2140 nM | 2140 nM | 88% | 98% | 2140 nM | 2140 nM | 2140 nM | 98% | 88% | 88% | 2140 nM | 98% | 98% | 98% | 88% | 
B2 |  |  |  | 94% |  |  |  |  |  | 95% |  | 94% |  |  |  | 4380 nM
B3 |  |  |  |  | 2490 nM |  |  |  |  |  |  | 90% |  |  |  | 
